By Kd is commonly meant the concentration at which binding is half-saturated.

Where no end group is shown, it is not given here. Where only a bound is given, the exact number is not on record here.

The values below come from article PMC6219580, “Conversion of an amide to a high-energy thioester by Staphylococcus aureus sortase A is powered by variable binding affinity for calcium” (Scientific Reports, 2018).

For the assay, the target named is T1, Staphylococcus aureus sortase A C184A mutant (residues 60-206) (Staphylococcus aureus, UniProt Q2FV99 60-206, C184A).
T1 construct: Sortase A, Staphylococcus aureus, residues 60-206 (SrtAΔN59) with the active-site mutation C184A; Uniformly 15N-labelled for the NMR titrations; gene cloned into a PET3a vector; also called SrtA C184A; active-site mutant C184A; source: E. coli BL21 (Rosetta), purified (anion exchange, Superdex75 gel filtration)
T1 sequence (looked up): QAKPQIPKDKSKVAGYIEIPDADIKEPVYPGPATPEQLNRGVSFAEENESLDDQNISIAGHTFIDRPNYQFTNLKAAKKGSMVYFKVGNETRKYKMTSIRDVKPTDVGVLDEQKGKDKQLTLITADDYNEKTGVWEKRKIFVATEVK
Nature of the assay: NMR titration; 15N-HSQC titration of the protein-Ca2+ complex at increased concentration with QALPETG-NH2; linear chemical shift changes only, far from saturation. The note with it: both partners purified.

B1: QALPETG-NH2 (peptide)
peptide: QALPETG-NH2
notes: substrate peptide with the canonical LPXTG sorting motif; also called substrate peptide; source: synthetic peptide, bought: KE Biochem Co. Ltd (China)
As to B1, the Kd is over 50 mM.
